The text below walks through data of paper PMC4640833, “Identification of a Novel Di-D-Fructofuranose 1,2’:2,3’ Dianhydride (DFA III) Hydrolysis Enzyme from Arthrobacter aurescens SK8.001” (PLoS ONE, 2015).

Data set [1] concerns the target DFA III hydrolysis enzyme (DFA IIIase) from Arthrobacter aurescens SK8.001 (Arthrobacter aurescens SK8.001). As to the kind of experiment: SEC; gel filtration by HPLC, TSK G2000SWxl column, 0.1 M phosphate buffer pH 6.7 with 0.05% NaN3 and 0.1 M Na2SO4, 1 mL/min, UV 280 nm; native mass about 145 kDa against 49 kDa subunit by SDS-PAGE; mass markers for calibration. For orientation: In gel filtration, larger molecules generally elute earlier.

Substrate in data set [2]: OC[C@H]1O[C@@]2(CO[C@]3(CO)O[C@H](CO)[C@@H](O)[C@@H]3O2)[C@@H](O)[C@@H]1O
In words: HPLC (refractive index) of inulobiose produced, nonlinear Michaelis-Menten fit. Format: biochemical, Paenarthrobacter aurescens. As to conditions: 50 mM citrate buffer pH 5.5, 55°C, 10 min, DFA III 2.0-50 mM.

The molecule “DFA III hydrolysis enzyme (DFA IIIase) from Arthrobacter aurescens SK8.001” displayed a stoichiometry N in data set [1] of 3.

B1: AaDFA IIIase (Paenarthrobacter aurescens) (protein)
chain: MSNSNYYNVTAWPIGDPFTGVGEVINSIIADIKDRQTATDENDGGKPGAVIYLPPGDYRLRTQVVIDVSFLRIEGSGHGFTSSSIRFNAPEAEWPDLHELWPGGSRVMVDLPIIDDERPSDLLPDQESKGAAFYVERSGSPRISSVEFSNFCIDGLHFTPDGSGLPAENSYVNGKTGIYVASANDSFRVNGMGFVYLENALTICKADALSVHDNFIAECGSCIELRGWGQASKITDNLIGAGFKGHSIYAQNHGGLLITANNIFPRGASSIHFEGVTRSSVSNNRLHSFYPGMVVLAEGSSENLVSTNHFLRDHEPWTPFLGVDNGRDDLYGILRISGSNNSVIGNHFSEVVDAQSIWPSGATPVIIRLAEGTGNFVSNNHVVAMDVRSASSDSCFAAQVDALLTTGASDGLAVTAVLVDSTSARNTILDSGNDAQVIADRGANAVRATPTVGFAAAESTQSSQGAGIPR
notes: full length 470 residues (49,879 Da), no signal peptide, C-terminal 6xHis tag kept, pET-22b(+) in E. coli BL21(DE3), homotrimer 145 kDa
Turning to B1, the Km in data set [2] amounted to 30.7 ± 4.3 mM.

As usually defined, the stoichiometry N is the number of molecules, sites or subunits per partner or assembly. The term Km denotes the concentration of substrate that gives half-maximal velocity.
